Source: patent US20170313746A1 (published 2017)
Blank lines part the entries; values can stand above or below the binder they belong to. Non-standard residues stand in square brackets, D forms with d. Phe(4-guanidino) = N=C(N)Nc1ccc(C[C@H](N)C(=O)O)cc1

Target: lactate dehydrogenase (LDH) in lysates of NCI-H460 cells (human, UniProt P00338 2-332)
Test: cell-based or functional assay

IC50 of LDH activity (LDH activity kit on lysates of treated NCI-H460 cells): 22 µM
B1: HILR-030 (cyclo-[Pro-Arg-Gly-Pro-Arg-Pro-Val-Trp-Trp-Gpa-Gpa-Trp-Trp-Gpa-Gpa-Trp-Trp]) (peptide)
peptide: cyclo(PRGPRPVWW[Phe(4-guanidino)][Phe(4-guanidino)]WW[Phe(4-guanidino)][Phe(4-guanidino)]WW)
SMILES: CC(C)[C@@H]1NC(=O)[C@@H]2CCCN2C(=O)[C@H](CCCNC(=N)N)NC(=O)[C@@H]2CCCN2C(=O)CNC(=O)[C@H](CCCNC(=N)N)NC(=O)[C@@H]2CCCN2C(=O)[C@H](Cc2c[nH]c3ccccc23)NC(=O)[C@H](Cc2c[nH]c3ccccc23)NC(=O)[C@H](Cc2ccc(NC(=N)N)cc2)NC(=O)[C@H](Cc2ccc(NC(=N)N)cc2)NC(=O)[C@H](Cc2c[nH]c3ccccc23)NC(=O)[C@H](Cc2c[nH]c3ccccc23)NC(=O)[C@H](Cc2ccc(NC(=N)N)cc2)NC(=O)[C@H](Cc2ccc(NC(=N)N)cc2)NC(=O)[C@H](Cc2c[nH]c3ccccc23)NC(=O)[C@H](Cc2c[nH]c3ccccc23)NC1=O

IC50 of LDH activity (LDH activity kit on lysates of treated NCI-H460 cells): 16 µM
B2: HILR-025 (cyclo-[Pro-Arg-Gly-Pro-Arg-Pro-Val-Trp-Trp-Arg-Arg-Trp-Trp-Arg-Arg-Trp-Trp]) (peptide)
peptide: PRGPRPVWWRRWWRRWW
modifications: head-to-tail cyclic peptide
